This experiment addresses T1, Human CD123 on stably transfected CHO-K1 cells (CHO-CD123) (human, UniProt P26951 19-378).
T1 construct: whole, on cells; also called IL-3 receptor alpha subunit; cell surface CD123
Briefly: flow cytometry on CHO-CD123 cells, 1 µg/ml. As for the experimental part:
Log phase growing monolayer cells were harvested with trypsin/EDTA solution (ATCC) and washed once with culture media and once with PBS containing 1% BSA. 1×10⁶ cells were resuspended in 200 μl staining solution (PBS, 1% BSA, 3% normal goat serum and indicated concentration of 12F1, 12F1scFv-Fc or CD123xCD3 BIf) at room temperature for 1 hour. Human IgG1 (Sigma) was used as a control. Cells were rinsed twice with PBS containing 1% BSA and incubated with PE-conjugated goat anti-human or anti-mouse antibody (Jackson Lab) at room temperature for 1 hour. Cells were thrice washed with PBS containing 1% BSA, resuspended in 500 μl of PBS and analyzed on a Beckman Coulter Cytomic FC 500 flow cytometry.
The abilities of 12F1scFv-Fc and CD123xCD3 BIf to bind cell surface CD123 were examined by flow cytometry using CHO-K1 and CHO-CD123. 12F1 murine monoclonal antibody was used as a positive control. […] The binding affinities were tested in cell-based ELISA with CHO-CD123 cells.

T1 sequence (P26951 19-378): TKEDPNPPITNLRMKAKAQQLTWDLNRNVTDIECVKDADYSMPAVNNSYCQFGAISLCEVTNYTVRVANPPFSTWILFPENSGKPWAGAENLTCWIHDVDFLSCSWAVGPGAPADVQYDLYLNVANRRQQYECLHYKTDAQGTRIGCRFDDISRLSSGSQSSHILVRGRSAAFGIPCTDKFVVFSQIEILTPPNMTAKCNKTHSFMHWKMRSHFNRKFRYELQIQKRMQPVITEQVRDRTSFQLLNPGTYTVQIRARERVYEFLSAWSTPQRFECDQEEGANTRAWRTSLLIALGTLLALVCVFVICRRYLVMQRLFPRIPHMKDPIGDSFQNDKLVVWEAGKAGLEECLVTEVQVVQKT

B1: 12F1 murine anti-human CD123 monoclonal antibody (antibody, V domains shown)
VH: VQLQESGPGLVKPSQSLSLTCSVTDYSITSGYYWNWIRQFPGNKLEWMGYISYDGSNNYNPSLKNRISITRDTSKNQFFLKLSSVTTEDTATYYCSRGEGFYFDSWGQGTTLTVSS
VL: DIMMSQSPSSLAVSVGEKFTMTCKSSQSLFFGSTQKNYLAWYQQKPGQSPKLLIYWASTRESGVPDRFTGSGSGTDFTLAISSVMPEDLAVYYCQQYYNYPWTFGGGTKLEIK
notes: Murine monoclonal antibody from hybridoma
Consider B1, for which the binding result is “binds”.

(Values after patent US20180222996A1 (SCOTT AND WHITE HEALTHCARE SWH, published 2018).)
